Like-named read-outs stand apart in the source and are kept apart here. Positions of bridges follow the written chain, without caps; N, C: chain ends. Non-standard residues stand in square brackets, D forms with d. Residues, ends and D or L forms follow the SMILES beside them. hArg = N=C(N)NCCCC[C@H](N)C(=O)O; Mpa = O=C(O)CCS
Assays:
[1] = tested on: SPM production in human whole blood; test: SPM and eicosanoid production during coagulation with heparin, eptifibatide, ADA, celecoxib or BAI; type: cell-based
Method: FIG. 2 illustrates regulators of SPM formation in human blood. (A to E) Freshly drawn human peripheral blood (4 ml) containing heparin (10 U/ml) was placed in polypropylene tubes (A) whereas human peripheral blood without anticoagulant was placed in silicone-coated tubes (B to E) and incubated at 37° C. for the time course of 0 to 24 hours (see Example 1, Materials and Methods). The samples were then subjected to snap-freezing for extraction and LC-MS/MS analysis. (A) Concentrations of the members of the SPM cluster (identified in FIG. 1) in samples treated without (Coag.) or with heparin (10 U/ml) during the incubation period. Data are means±SEM of three individual donors. (B) Left: Combined concentrations of the total SPM cluster, prostaglandins, and thromboxanes after 24 hours of coagulation in the presence or absence of the αIIbβ3 inhibitor eptifibatide (Eptifib.; 20 μM). Middle: Clot volumes after 24 hours of coagulation of the indicated samples. Right: Representative clot images. Data are means±SEM of three individual donors. (C) Concentrations of total SPMs and of the indicated individual SPMs after 24 hours of coagulation in the presence or absence of 200 mU ADA. Data are means±SEM of three individual donors. *P<0.05, **P<0.01 by ratio t-test. (D) Top: LC-MS/MS measurements of adenosine concentrations in whole blood at the indicated time points during coagulation in the presence or absence of ADA. **P<0.01 when compared to the zero-hour time point. Bottom: Flow cytometric analysis of the percentage of neutrophil-platelet aggregates, which were defined as being double-positive for CD16 and CD42b, in whole blood allowed to coagulate for the indicated times in the absence (Coag.) or presence of ADA. Data are means±SEM of five individual donors. *P<0.05, **P <0.01 by student's t test. For dot plots and gating, see FIG. 7B. (E) MS/MS fragmentation profiles with diagnostic ions for the indicated SPMs identified in (C). (F) Left: PCA score plot. Red denotes +ADA for 1 hour; yellow, coagulation for 1 hour; green, coagulation for 24 hours; blue, +ADA for 24 hours. Right: PCA loading plot showing temporal clustering of the indicated mediators from three individual donors. Red denotes LM at 1 hour; blue denotes 24 hours with ADA).
FIG. 8 illustrates SPM formation in human blood clots being regulated by lipoxygenase activity. (A and B) Freshly drawn human peripheral blood (4 ml) was placed in silicone-coated tubes at 37° C. for 24 hours and coagulation was stopped by snap-freezing before LC-MS/MS analysis was performed. Concentrations of total SPMs, prostaglandins, and thromboxanes after 24 hours of coagulation (Coag.) in the presence or absence of (A) 100 μM indomethacin (Indo.) (n=six individual donors), (B) 500 nM celecoxib (CLX) or 20 μM BAI (n=three individual donors). […]

human blood clot = test: Clot volume after 24 hours of coagulation; type: cell-based; details: eptifibatide 20 μM, P<0.01
Method: (A to E) Freshly drawn human peripheral blood (4 ml) containing heparin (10 U/ml) was placed in polypropylene tubes (A) whereas human peripheral blood without anticoagulant was placed in silicone-coated tubes (B to E) and incubated at 37° C. for the time course of 0 to 24 hours (see Example 1, Materials and Methods). The samples were then subjected to snap-freezing for extraction and LC-MS/MS analysis. […] (B) Left: Combined concentrations of the total SPM cluster, prostaglandins, and thromboxanes after 24 hours of coagulation in the presence or absence of the αIIbβ3 inhibitor eptifibatide (Eptifib.; 20 μM). Middle: Clot volumes after 24 hours of coagulation of the indicated samples. Right: Representative clot images. Data are means±SEM of three individual donors.
Human whole blood was transferred in 4-ml aliquots to negatively charged, silicone-coated 10-ml tubes (BD) without anticoagulant. For experiments with heparin, the heparinized blood was placed in 15-ml polypropylene tubes before incubation at 37° C. For LM profiling at designated times, all samples were immediately subjected to a workup procedure by which whole blood was snap-frozen in a dry ice/isopropanol bath and were returned to room temperature (×3 cycles) before undergoing centrifugation at 100,000 g at 4° C.

[2] = Flow cytometric analysis of clots, cell viability (annexin V / PI); type: cell-based, human; details: human
Method: (§1) Human peripheral blood was collected from healthy individuals without anticoagulant and allowed to coagulate for 24 hours as described earlier. Clots were washed with phosphate-buffered saline (PBS) containing Ca2+ (0.9 mM) and Mg2+ (0.5 mM) and then gently homogenized and passed through a 70-micron filter. Clot-derived cells were stained for flow cytometric analysis. Cells were stained in FACS buffer (PBS with 1% BSA and 0.1% sodium azide). […] For viability assays, FITC-conjugated annexin V (BD) and propidium iodide (PI) were added to the cells according to the manufacturer's protocol. Samples were analyzed with a FACS Canto II flow cytometer (BD Bioscience) and FlowJo X Software.

[3] = tested on: clot-derived leukocytes and lymphocytes; test: as above; type: cell-based, human
Method: as §1

[4] = ADA, P<0.01
Method: Human blood was subjected to the same freeze-thaw procedure as was used for the metabololipidomics. After centrifugation at 1000 g at 4° C. for 5 min, supernatants were reconstituted with 4 volumes of methanol and kept on ice for 30 min to facilitate protein precipitation. Samples were then subjected to centrifugation at 1000 g at 4° C. for 5 min. Supernatants were reconstituted to <1% methanol and then taken to LC-MS/MS for identification and quantitation of adenosine by matched retention time with ≥99%, pure adenosine (Sigma) through MRM transition 268>136 for the protonated adenine fragment (54).

[5] = tested on: neutrophil-platelet aggregates; test: Neutrophil-platelet interactions by flow cytometry; type: cell-based, human; details: with ADA
Method: Whole blood was collected from healthy individuals without anticoagulant and allowed to coagulate for 1, 6, or 24 h with or without ADA. Clots were washed with PBS and then gently homogenized and passed through a 70 micron-filter. Clot derived neutrophil-platelet interactions were analyzed by flow cytometry with FITC-conjugated anti-human CD16 antibody (clone ebio CB16), and PE-conjugated anti-human CD42b (clone HIP1). Neutrophils were identified by their cell surface expression of CD16 and high side and forward scatter. Platelets were identified based on their low side and forward scatter on a log scale and on their cell surface expression of CD42b. Neutrophil and platelet aggregates were identified as CD14-cells that were double-positive for CD42b and CD16 as CD14-,CD42b+,CD16+,SSChigh,FSChigh.

[6] = 24 h coagulation, n = 3, mean +/- S.E.M.

Molecule	reduction of the total amount of the SPM cluster ([1]; eptifibatide 20 μM, 24 hours of coagulation, P<0.01)	increase in clot volume (human blood clot)	viability at 24 h [2]	Early apoptosis [3]	Late apoptosis [3]	Necrotic [3]	cell viability (in words) [3]	total SPM production vs. coagulation alone ([1]; 200 mU ADA, 24 hours)	time by which adenosine was cleared during coagulation [4]	Early apoptosis [3, 6]	Late apoptosis [3, 6]	Live [3, 6]	Necrotic [3, 6]	cell viability (in words) ([3]; during coagulation)	number of platelet-neutrophil aggregates during the time course of coagulation [5]
N=C(N)NCCCC[C@@H]1NC(=O)CCSSC[C@@H](C(N)=O)NC(=O)[C@@H]2CCCN2C(=O)[C@H](Cc2c[nH]c3ccccc23)NC(=O)[C@H](CC(=O)O)NC(=O)CNC1=O [Eptifibatide, eptifibatide, reference compound] ([Mpa][hArg]GDWPC-NH2; disulfide 1-7)	~50%	~20%	90.6 ± 1.3%	5.1 ± 1.9%	2.0 ± 0.5%	0.9 ± 0.1%	without reducing cell viability	–	–	–	–	–	–	–	–
adenosine deaminase (protein, UniProt P00813 2-363, looked up, human recombinant adenosine deaminase, removes adenosine) Adenosine deaminase: AQTPAFDKPKVELHVHLDGSIKPETILYYGRRRGIALPANTAEGLLNVIGMDKPLTLPDFLAKFDYYMPAIAGCREAIKRIAYEFVEMKAKEGVVYVEVRYSPHLLANSKVEPIPWNQAEGDLTPDEVVALVGQGLQEGERDFGVKARSILCCMRHQPNWSPKVVELCKKYQQQTVVAIDLAGDETIPGSSLLPGHVQAYQEAVKSGIHRTVHAGEVGSAEVVKEAVDILKTERLGHGYHTLEDQALYNRLRQENMHFEICPWSSYLTGAWKPDTEHAVIRLKNDQANYSLNTDDPLIFKSTLDTDYQMTKRDMGFTEEEFKRLNINAAKSSFLPEDEKRELLDLLYKAYGMPPSASAGQNL	–	–	–	–	–	–	–	more than 8 times	≤ 1 h	9.9 ± 2.9%	5.8 ± 1.4%	81.5 ± 0.5%	2.7 ± 2.0%	Cell viability was not decreased	statistically significantly increased

— patent US11592453B2, “Personalized metabolomic profiling of specialized pro-resolving mediators” (THE BRIGHAM AND WOMEN'S HOSPITAL, INC., priority 2016, dated 2023)
